Assay results: US20250002527A1, “STEROID COMPOUND AND CONJUGATE THEREOF” (DUALITY BIOLOGICS (SUZHOU) CO., LTD., priority 2021, published 2025)

B1: Conjugate 19: antibody BIIB059 reacted with Compound 9 "to give Conjugate 19"; 4.75 by LC-MS (conjugate, chains of the INN, looked up)
VH: DVQLVESGGGLVKPGGSLRLSCAASGFTFSTYTMSWVRQAPGKGLEWVATISPGDSFGYYYPDSVQGRFTISRDNAKNSLYLQMNSLRAEDTAVYYCTRDIYYNYGAWFAYWGQGTLVTVSS
VL: DIQLTQSPSSLSASVGDRVTITCKASQSVDYDGDSYMNWYQQKPGKAPKLLIYAASTLESGVPSRFSGSGSGTDFTLTISSLQPEDFATYYCQQANEDPRTFGQGTKVEIK
modifications: Compound 9 conjugate
notes: antibody BIIB059 reacted with Compound 9 "to give Conjugate 19"; 4.75 by LC-MS
B2: Conjugate 20: antibody BIIB059 reacted with Compound 16 "to give Conjugate 20"; 4.27 by LC-MS (conjugate, chains of the INN, looked up)
VH: B1 VH
VL: B1 VL
modifications: conjugated to Compound 16
notes: antibody BIIB059 reacted with Compound 16 "to give Conjugate 20"; 4.27 by LC-MS
B3: Conjugate 21: antibody BIIB059 reacted with Compound 15 "to give Conjugate 21"; 4.30 by LC-MS (conjugate, chains of the INN, looked up)
VH: B1 VH
VL: B1 VL
modifications: Compound 15 conjugate
notes: antibody BIIB059 reacted with Compound 15 "to give Conjugate 21"; 4.30 by LC-MS

Columns and labels:
Type in all cases: cell-based
human PBMC cells [1] = experiment: TNF-α secretion from PBMC under R848 stimulation (compounds); settings: R848 5 μM, 24 hours, mean ± standard deviation
Method: (§1) The compounds of the present application were tested for their inhibitory effect on the production of peripheral blood monocytes. The peripheral blood monocytes were treated in vitro with the ligand-drug conjugate at different concentrations, and IFNα and TNFα generated by the peripheral blood monocytes were quantitatively detected after a certain time. The compounds of the present invention were evaluated for in-vitro activity.
(§2) The cryopreserved human PBMC cells were resuspended in a complete medium and counted, and the cell suspension was adjusted to 2.5×10*6 cells/mL with the culture medium. After the suspension was centrifuged to collect the cells the next day, the cells were resuspended using fresh culture medium. Test compounds were diluted to 4-fold final concentration in cell culture medium, 50 μL of the compounds were added into a 96-well cell plate, and 100 μL of diluted cells ([…]) were added into each well of the 96-well plate containing the compounds, followed by addition of 50 μL R848 to a final concentration of 5 μM. The cell plate was incubated at 37° C. with 5% CO2 for 24 hours. The supernatant was collected, and the TNF-α and IFN-α concentration levels in the supernatant were detected using an ELISA kit.
TNF-α concentration assay was performed using Dakewe TNF-α ELISA kit (Cat #1117202), 100 μL of the serially-diluted cytokine standard was added into each well, 100 μL of the above supernatant diluted 10-fold was added into each well, and 100 μL of 1× dilution buffer R was added into each blank well. 50 μL of biotinylated antibody working solution was added into each well. After mixing well, the plate was covered with the plate-sealing membrane and incubated at room temperature for 3 hours. The plate was washed for 3 times: the liquid in each well was discarded, and 300 μL of 1× washing buffer working solution was added into each well; after 1 minute of residence, the liquid in the wells was discarded. The procedure was repeated for 3 times. 100 μL of Streptavidin-HRP working solution was added into each well. The plate was covered with the plate-sealing membrane and incubated at room temperature for 20 minutes. The plate was washed for 3 times, 100 μL of TMB liquid was added into each well, and the plate was incubated for 25 minutes at room temperature (18-25° C.) in the dark. The reaction was stopped by adding 100 μL stop solution rapidly to each well. The reading at a wavelength of 450 nm was detected by an M2e instrument within 10 minutes after termination.
(§3) The contents of TNF-α and IFN-α were calculated from the OD450 values.

human PBMC cells [2] = experiment: IFN-α secretion from PBMC under R848 stimulation (compounds); settings: R848 5 μM, 24 hours, mean ± standard deviation
Method: as §1, §2
50 μL of biotinylated antibody working solution was added into each well. After mixing well, the plate was covered with the plate-sealing membrane and incubated at room temperature for 3 hours. […] The procedure was repeated for 3 times. 100 μL of Streptavidin-HRP working solution was added into each well. The plate was covered with the plate-sealing membrane and incubated at room temperature for 20 minutes. The plate was washed for 3 times, 100 μL of TMB liquid was added into each well, and the plate was incubated for 25 minutes at room temperature (18-25° C.) in the dark. The reaction was stopped by adding 100 μL stop solution rapidly to each well. The reading at a wavelength of 450 nm was detected by an M2e instrument within 10 minutes after termination.
as §3

human PBMC cells [3] = experiment: R848-induced IL8 release from PBMCs (drug conjugates, FIG. 1d); settings: incubation concentration 300 nm
Method: (§4) 1a: R848-induced IFNα release from PBMCs; 1b: R848-induced TNFα release from PBMCs; 1c: R848-induced IL6 release from PBMCs, 1d: R848-induced IL8 release from PBMCs.
(§5) The inhibitory effect of the ligand-drug conjugate (ADC) of the present application on the production of IFNα by peripheral blood monocytes was examined. The peripheral blood monocytes were treated in vitro with the ligand-drug conjugate at different concentrations, and IFNα and TNFα generated by the peripheral blood monocytes were quantitatively detected after a certain time. The ligand-drug conjugates were evaluated for in-vitro activity.
(§6) The cryopreserved human PBMC cells were resuspended in a complete medium and counted, and the cell suspension was adjusted to 2.5×10*6 cells/mL with the culture medium. After the suspension was centrifuged to collect the cells the next day, the cells were resuspended using fresh culture medium, and 100 μL of diluted cells ([…]) were added into a 96-well plate. The test samples were diluted to 3-fold final stimulation concentration using fresh culture medium, 50 μL of the diluted test samples were added into the 96-well cell plate, and the cell plate was incubated at 37° C. with 5% CO2 for 12 hours, followed by addition of 50 μL 20 μM R848 each well. The cell plate was incubated at 37° C. with 5% CO2 for 20 hours. The supernatant was collected, and the cytokine concentration in the supernatant was detected using a kit.
(§7) IL-8 concentration assay was performed using Dakewe IL-8 ELISA kit (Cat #1110802), 100 μL of the serially-diluted cytokine standard was added into each well, 100 μL of the above supernatant diluted 2-fold was added into each well, and 100 μL of 1× dilution buffer R was added into each blank well. 50 μL of biotinylated antibody working solution was added into each well. After mixing well, the plate was covered with the plate-sealing membrane and incubated at room temperature for 3 hours. […] The reading at a wavelength of 450 nm was detected by an M2e instrument within 10 minutes after termination.

human PBMC cells [4] = experiment: R848-induced IL6 release from PBMCs (drug conjugates, FIG. 1c); settings: incubation concentration 300 nm
Method: as §4, §5, §6
IL-6 concentration assay was performed using Dakewe IL-6 ELISA kit (Cat #DKW12-1060-096), 100 μL of serially-diluted cytokine standard was added into each well, 100 μL of the above supernatant diluted 2-fold was added into each well, and 100 μL of 1× dilution buffer R was added into each blank well. 50 μL of biotinylated antibody working solution was added into each well. After mixing well, the plate was covered with the plate-sealing membrane and incubated at room temperature for 3 hours. […] The reading at a wavelength of 450 nm was detected by an M2e instrument within 10 minutes after termination.

human PBMC cells [5] = experiment: R848-induced IFNα release from PBMCs (drug conjugates, FIG. 1a); settings: incubation concentration 300 nm
Method: as §4, §5, §6
as §7, with “IFN-α concentration” for “IL-8 concentration”, “Dakewe […]” for “Dakewe IL-8”, “(Cat #1110012),” for “(Cat #1110802),”

human PBMC cells [6] = experiment: R848-induced TNFα release from PBMCs (drug conjugates, FIG. 1b); settings: incubation concentration 300 nm
Method: as §4, §5, §6
as §7, with “TNF-α” for “IL-8”, “#1117202),” for “#1110802),”, “10-fold” for “2-fold”

Molecule | TNF-α secretion (pg/mL) from PBMC under R848 stimulation (human PBMC cells [1]; compound 4 nM) | TNF-α secretion (pg/mL) from PBMC under R848 stimulation (human PBMC cells [1]; compound 20 nM) | TNF-α secretion (pg/mL) from PBMC under R848 stimulation (human PBMC cells [1]; compound 100 nM) | IFN-α secretion (pg/mL) from PBMC under R848 stimulation (human PBMC cells [2]; compound 20 nM) | IFN-α secretion (pg/mL) from PBMC under R848 stimulation (human PBMC cells [2]; compound 100 nM) | IFN-α secretion (pg/mL) from PBMC under R848 stimulation (human PBMC cells [2]; compound 4 nM) | IL-8 contents in the detection system (human PBMC cells [3]) | IL-6 contents in the detection system (human PBMC cells [4]) | IFN-α contents in the detection system (human PBMC cells [5]) | TNF-α contents in the detection system (human PBMC cells [6])
C[C@]12C=CC(=O)C=C1CC[C@@H]1[C@@H]2[C@@H](O)C[C@@]2(C)[C@H]1C[C@H]1O[C@@H](c3ccc(Cc4cccc(N)c4)cc3)O[C@]12C(=O)CO [Compound 14] | 868 pg/mL | 465.6 pg/mL | 471.9 pg/mL | 10.2 ± 10.2 pg/mL | 13 ± 13 pg/mL |  |  |  |  | 
C[C@@H]1C[C@H]2[C@@H]3CCC4=CC(=O)C=C[C@]4(C)[C@@]3(F)[C@@H](O)C[C@]2(C)[C@@]1(O)C(=O)CO [Dexamethasone, dexamethasone, reference compound] | 1446.5 pg/mL | 761.9 pg/mL | 396.4 pg/mL | 169.6 ± 94.4 pg/mL | 0 ± 0 pg/mL | 620.7 ± 70.4 pg/mL |  |  |  | 
B1 |  |  |  |  |  |  | 26565.5 pg/mL | 8861.7 pg/mL | 113.2 pg/mL | 761.8 pg/mL
B2 |  |  |  |  |  |  | 56315.8 pg/mL | 34744.1 pg/mL | 1422.5 pg/mL | 3280.0 pg/mL
B3 |  |  |  |  |  |  | 43544.9 pg/mL | 29867.1 pg/mL | 911.9 pg/mL | 2644.1 pg/mL
